Measured values from patent US20030092616A1, “STAT6 activation gene” (priority 2001, published 2003).

B1: 159 (nucleic acid, listed as Homo sapiens)
chain: CCGGCGGGCTGGTGAGGAATGGAGCCGGTAGGCTGCTGCGGCGAGTGCCGCGGCTCCTCCGTAGACCCGCGGAGCACCTTCGTGTTGAGTAACCTGGCGGAGGTGGTGGAGCGTGTGCTCACCTTCCTGCCCGCCAAGGCGTTGCTGCGGGTGGCCTGCGTGTGCCGCTTATGGAGGGAGTGTGTGCGCAGAGTATTGCGGACCCATCGGAGCGTAACCTGGATCTCCGCAGGCCTGGCGGAGGCCGGCCACCTGGAGGGGCATTGCTTGGTTCGCGTGGTAGCAGAGGAGCTTGAGAATGTTCGCATCTTACCACATACAGTTCTTTACATGGCTGATTCAGAAACTTTCATTAGTCTGGAAGAGTGTCGTGGCCATAAGAGAGCAAGGAAAAGAACTAGTATGGAAACAGCACTTGCCCTTGAGAAGCTATTCCCCAAACAATGCCAAGTCCTTGGGATTGTGACCCCAGGAATTGTAGTGACTCCAATGGGATCAGGTAGCAATCGACCTCAGGAAATAGAAATTGGAGAATCTGGTTTTGCTTTATTATTCCCTCAAATTGAAGGAATAAAAATACAACCCTTTCATTTTATTAAGGATCCAAAGAATTTAACATTAGAAAGACATCAACTCACTGAAGTAGGTCTTTTAGATAACCCTGAACTTCGTGTGGTCCTTGTCTTTGGTTATAATTGCTGTAAGGTGGGAGCCAGTAATTATCTGCAGCAAGTAGTCAGCACTTTCAGTGATATGAATATCATCTTGGCTGGAGGCCAGGTGGACAACCTGTCATCACTGACTTCTGAAAAGAACCCTCTGGATATTGATGCCTCGGGTGTGGTTGGACTGTCATTTAGTGGACACCGAATCCAGAGTGCCACTGTGCTCCTCAACGAGGACGTCAGTGATGAGAAGACTGCTGAGGCTGCGATGCAGCGCCTCAAAGCGGCCAACATTCCAGAGCATAACACCATTGGCTTCATGTTTGCATGCGTTGGCAGGGGCTTTCAGTATTACAGAGCCAAGGGGAATGTTGAGGCTGATGCATTTAGAAAGTTTTTTCCTAGTGTTCCCTTATTCGGCTTCTTTGGAAATGGAGAAATTGGATGTGATCGGATAGTCACTGGGAACTTTATATTGAGGAAATGTAATGAGGTAAAAGATGATGATCTGTTTCATAGCTATACAACAATAATGGCACTCATACATCTGGGGTCATCTAAATAATAATTAAAGTGGCTTTCATAATATGT
modifications: CDS (19)..(1227)
B2: 417 (nucleic acid, listed as Homo sapiens)
chain: ATTCCTCCCAGGGACCCCAGACCTCTGTCTCTCTCGGCAGGCCTTGGCTCCTTGAACTTTTGGCCGCCATGTACTTCCCGAAGGTCCTCTCTGATGACATGAAGAAGCTGAAGGCCCGAATGCACCAGGCCATAGAAAGATTTTATGATAAAATGCAAAATGCAGAATCAGGACGTGGACAGGTGATGTCGAGCCTGGCAGAGCTGGAGGACGACTTCAAAGAGGGCTACCTGGAGACAGTGGCGGCTTATTATGAGGAGCAGCACCCAGAGCTCACTCCTCTACTTGAAAAAGAAAGAGATGGATTACGGTGCCGAGGCAACAGATCCCCTGTCCCGGATGTTGAGGATCCCGCAACCGAGGAGCCTGGGGAGAGCTTTTGTGACAAGGTCATGAGATGGTTCCAGGCCATGCTGCAGCGGCTGCAGACCTGGTGGCACGGGGTTCTGGCCTGGGTGAAGGAGAAGGTGGTGGCCCTGGTCCATGCAGTGCAGGCCCTCTGGAAACAGTTCCAGAGTTTCTGCTGCTCTCTGTCAGAGCTCTTCATGTCCTCTTTCCAGTCCTACGGAGCCCCACGGGGGGACAAGGAGGAGCTGACACCCCAGAAGTGCTCTGAACCCCAATCCTCAAAATGAAGATACTGACACCACCTTTGCCCTCCCCGTCACCGCGCACCCACCCTGACCCCTCCCTCAGCTGTCCTGTGCCCCGCCCTCTCCCGCACACTCAGTCCCCCTGCCTGGCGTTCCTGCCGCAGCTCTGACCTGGTGCTGTCGCCCTGGCATCTTAATAAAACCTGCTTATACTTCCCTGGC
modifications: CDS (69)..(632)
B3: 397 (nucleic acid, listed as Homo sapiens)
chain: ACAGATGAAACTTTTTAGGTCTCAAAGAAATCTTTACATTTCTGGATTTTCCCTATTTTTTTGGCTAGTTTTGAGACGTCTGGTTACGCTTATTACTCAACTGGCAAAAGAACTGTCAAACAAAGGTGTACTTAAAACTCAAGCAGAAAATACTAACAAGGCTGCCAAAAAATTTATGGAAGAAAACGAAAAACTAAAAAGGATTTTGAAAAGCCATGGTAAAGATGAAGAATGTGTTTTGGAAGCAGAAAATAAAAAACTAGTAGAAGACCAGGAGAAACTGAAAACTGAATTAAGGAAGACTTCAGATGCCCTTTCTAAGGCACAAAATGATGTGATGGAAATGAAGATGCAGTCAGAGAGACTTTCGAAAGAATATGATCAACTCCTGAAAGAACACTCTGAACTTCAGGATCGTTTAGAAAGAGGCAACAAGAAAAGACTGTGAACTTTATAAAAGACACTTGCAATATACTGTGTCAAAATGATAATTTTGTTATGTTAGCCTCTAGAAAATTTAAGTTCAGAAAAATGCACTATGACCGGTTCGTAATTTTTTTAATGCCACACATAGGTTGTATTGTAATGGCATTATCAAAATATTTGATGATGTTTCAGATATATTGCAAAGTCTGTATTCCAGCTCTTAAGAAAAATATAAGCATGTTAAATACCATATTTACATATTGATAATGTCATTGGTATATGGTGGCTGTTTACCAATAAAAGGAAAAAATTCATT
modifications: CDS (5)..(445)
B4: 413 (nucleic acid, listed as Homo sapiens)
chain: GAGGAGGCCGCGCCAGTGACAGCGATGGCGGCGGAGTCGGCGCTCCAAGTTGTGGAGAAGCTGCAGGCGCGCCTGGCCGCGAACCCGGACCCTAAGAAGCTATTGAAATATTTGAAGAAACTCTCCACCCTGCCTATTACAGTAGACATTCTTGCGGAGACTGGGGTTGGGAAAACAGTAAATAGCTTGCGAAAACACGAGCATGTTGGAAGCTTTGCCAGGGACCTAGTGGCCCAGTGGAAGAAGCTGGTTCCTGTGGAACGAAATGCTGAGCCTGATGAACAGGACTTTGAGAAGAGCAATTCCCGAAAGCGCCCTCGGGATGCCCTGCAGAAGGAGGAGGAGATGGAGGGGGACTACCAAGAAACCTGGAAAGCCACGGGGAGCCGATCCTATAGCCCTGACCACAGGCAGAAGAAACATAGGAAACTCTCGGAGCTCGAGAGACCTCACAAAGTGTCTCACGGTCATGAGAGGAGAGATGAGAGAAAGAGGTGTCACAGAATGTCACCAACTTACTCTTCAGACCCTGAGTCTTCTGATTATGGCCATGTTCAATCCCCTCCATCTTGTACCAGTCCTCATCAGATGTACGTCGACCACTACAGATCCCTGGAGGAGGACCAGGAGCCCATTGTTTCACACCAGAAGCCTGGGAAAGGCCACAGCAATGCCTTTCAGGACAGACTCGGGGCCAGCCAAGAACGACACCTGGGTGAACCCCATGGGAAAGGGGTTGTGAGTCAAAACAAGGAGCACAAATCTTCCCACAAGGACAAACGCCCCGTGGATGCCAAGAGTGATGAGAAGGCCTCTGTGGTGAGCAGAGAGAAATCACACAAGGCCCTCTCCAAAGAGGAGCCGGCCTATGATGGCCCAAGCACCAGCAGTGCCCACTTGGCACCAGTGGTCAGCAGCACTGTTTCCTATGATCCTAGGAAACCCACTGTGAAGAAAATTGCCCCAATGATGGCCAAGACAATTAAAGCTTTCAAGAACAGATTCTCCCGACGATAAACTGAGGACTTGCCTTGGAAATGGAATCTGGGGAGGCAGGAATACAAGGACAGTGGGGGTTGGGGAATGGAATTCTACAGGAGACTGGAGTCTTGCTTTGTGGATCCTTTTGGTCTCCGAGTCCTGCAGTCTGCAGGTGCTGCCCCTGGGAACCTGCGTGCCACAGCCCCGCCTCCCTGCCTGGAGCACACTTTAGAATTCTGAAGATGTGAAGCCTCTGTCTCACTGAGGATTTTAAAGGTCAATTATACTTTTGTTGTTCATTAGCATCTTTGTAAACTATAAGACGTAGTTTTAATTAATAAATATTGCCCCCAGATTGTATTT
modifications: CDS (25)..(1014)
B5: 423 (nucleic acid, listed as Homo sapiens)
chain: AAAAAAAAAGCTGGGAGCCGCCGCCCCCGCAGCTGCTGCCGCCGCCGCCAGGGCCCGGACTCGGACGCGTGGTAGCCCCAGGATGGGTGAGTTCAACGAGAAGAAGACAACATGTGGCACCGTTTGCCTCAAGTACCTGCTGTTTACCTACAATTGCTGCTTCTGGCTGGCTGGCCTGGCTGTCATGGCAGTGGGCATCTGGACGCTGGCCCTCAAGAGTGACTACATCAGCCTGCTGGCCTCAGGCACCTACCTGGCCACAGCCTACATCCTGGTGGTGGCGGGCACTGTCGTCATGGTGACTGGGGTCTTGGGCTGCTGCGCCACCTTCAAGGAGCGTCGGAACCTGCTGCGCCTGTACTTCATCCTGCTCCTCATCATCTTTCTGCTGGAGATCATCGCTGGTATCCTCGCCTACGCCTACTACCAGCAGCTGAACACGGAGCTCAAGGAGAACCTGAAGGACACCATGACCAAGCGCTACCACCAGCCGGGCCATGAGGCTGTGACCAGCGCTGTGGCAGCAACAACTCACAGGACTGGCGAGACAGTGAGTGGATCCGCTCACAGGAGGCCGGTGGCCGTGTGGTCCCAGACAGCTGCTGCAAGACGGTGGTGGCTCTTTGTGGGCAGCGAGACCATGCCTCCAACATCTACAAGGTGGAGGGCGGCTGCATCACCAAGTTGGAGACCTTCATCCAGGAGCACCTGAGGGTCATTGGGGCTGTGGGGATCGGCATTGCCTGTGTGCAGGTCTTTGGCATGATCTTCACGTGCTGCCTGTACAGGAGTCTCAAGCTGGAGCACTACTGACCCTGCCTTGGGCCTTGCTGCTGCTGCACCCAACTACTGAGCTGAGACCACTGAGTACCAGGGGCTGGGCTCCCTGATGACACCCACCCTGTGCCATCACCATAACCTCTGGGGACCCCAACCTCAGAGGCAGCTTCAAGTGCCTTTTGCTGCGCACCAATGCCCAGCAGGGGAGGTGAGGGGGGCTGGCGGGGCGAAGTTTGGGGGGTGTTTTGTGGGGCTCCCCAGACACACTCTCTGCCTGGTGGTCAGATGCAGGTTGGAAGGGGCCTTGCTGAGTGGCGCAAGGCCGAGCGTTCCCAGCAGGGGGAGAAACCCTTCACACCCCAGGCCCTTCAGGAACTGGGGCCTTGCCTTGCAGCCACATGGCCCCATCCCAGTTGGGGAAGCCAGGTGAGCTCTGACCCTTGGGCCTGGGCCTCTGCCCCTCCCAACCCAGCCCTCGTCTCCCTCGACAGCGCCCCTGCTGTCTTCCCCACCGCAGTCACCACCACCCGAAATGCCACGTGGTCACTGTGCACTGCCCTGTCCATGTGCCTCTGCGGGGCAGGGCCTTCCTGGTTTTGTTCACTGCTGTACCCAGATGCCTACAACCATCCCTGCCACATACAGGTGCTCAATAAACACTTGTAGAGCAGATGG
modifications: CDS (83)..(709)

These molecules were tested on STAT6 (assay: Screening of full-length cDNA clones for promotion of STAT6 activation (luciferase reporter N4×8-luc)). Conditions: NIH3T3 cells cotransfected with N4×8-luc reporter and cDNA plasmid; 48 h culture, then mouse IL-4 0.5 ng/ml for 6 h.
Format: cell-based
Method in brief: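 NIH3T3 cells cotransfected with STAT6-responsive N4×8-luc reporter (100 ng) and full-length cDNA, cultured 48 h, then given mouse IL-4 at 0.5 ng/ml final for 6 h. Luciferase activity compared with reporter plus null-vector control.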

Going from B1 to B2, the “Activity = (luciferase activity of the gene of each SEQ ID NO:)/(luciferase activity of pME18S-FL3)” value falls from 19.1 to 13.4.

Compared with B3, B4 is lower in “Activity = (luciferase activity of the gene of each SEQ ID NO:)/(luciferase activity of pME18S-FL3)” value: 32.6 for the first, 3.4 for the second.

B5 was tested, and the “Activity = (luciferase activity of the gene of each SEQ ID NO:)/(luciferase activity of pME18S-FL3)” value was 4.8.
